From article PMC4661009, “Synthesis of α,β-unsaturated esters via a chemo-enzymatic chain elongation approach by combining carboxylic acid reduction and Wittig reaction” (Beilstein Journal of Organic Chemistry, 2015)

Substrate: O=C(O)c1ccccc1
Experiment: steady-state kinetics of carboxylic acid reduction
Assay type: biochemical, Mycolicibacterium neoaurum
Conditions: His-tagged CAR, holo form after PPTase/CoA treatment; ATP, NADPH, Mg2+ as cofactors; assay pH and temperature for Km not in main text

B1: Mycobacterium CAR (Mycolicibacterium neoaurum VKM Ac-1815D) (protein)
chain: MFAENLDDQQRLADLYATDPEFAAAAPDPAIADAVAAPEMRLPEIIRTVLTGYAERPALGSRAVQLVTDEATGRTRAELLGHFETITYGQLWDRVRAVTNAWSDTVRPGDRVAILGFGSVDFTVIDIALTQLGAVSVPLQTSATAAALAPIVAETEPALIASDVNHLDDAVTLALESGVATVVVFDQNPAVDDDREAIAAATARLDGQTLATLDEVIAAGAERPDVAIPAQEGDPLSLLIYTSGSTGAPKGAMYPQGKVADIWRPAINSHWDARQGHVPAIVLSFMPMSHVMGRGILYASLASGGVVNFAARADLSTLLEDLALTRPTQLNFVPRVWDMLFQDYQSRAAHGGSEADILADMRTNLLGGRYVSALTGSAPISPELKAWVERLLDLHLVEGYGSTEAGAVFVDGQISRPPVLEYKLVDVPELGYHSTDVPHPRGELLIRSEQLFPGYYKRPEVTASVFDEDGFYRTGDIVAELGPDQVAYIDRRNNVLKLSQGEFVTVSKLEAVFNTAPLVHQIYIYGNSARPYLLAVVVPTDPAATKAEIADALKAAARKADLQSYELPRDFLVETQEFTTENGLLTGIKKLAWPKLKERYGAELEQLYTDLADGQAGELQALRATGADAPVLETVGRAAVALLGAASSDIAPDVHFTDLGGDSLSALTFGNLLADIFDVEVPVSVIVSPTADLASIAAHIETQRSGSGLRPSFASVHGKDATVARAADLTLDKFIDAETLAAAGDLAGPATNVRTVLLTGATGFLGRYLALEWLERMNLVDGKVIALVRARSDAEARARLDATFDTGDPKLVAHYRELADKHLEVLAGDKGEHDLGLDRQTWQRLADTVDLIVDPAALVNHVLPYNELFGPNALGTAELIRVALTTRIKPFVYVSTIGVGAGIEPGRFVEDADIREISATRVLDDSYANGYGASKWAGEVLLREAHEQFGLPVSVFRCDMILADTSYAGQLNLPDMFTRMMLSLVATGIAPKSFNQLDAQGNRQRSHYDGLPVEFIAEAISTLGADVTDGFETYHVMNPHDDGLGLDEFVDWLVDAGHPIRRIDDYQAWFEQFGATLRTLPDRQRQASLLPLLHNYTTPGQPVNGAMAPTDVFRTAVQEAKIGPDKDIPHVSRDVIVKYVTDLQLLGLL
notes: full-length gene in pET30b(+) (NdeI/XhoI), His-tagged, E. coli BL21(DE3), tag kept; monomer, theoretical 125 kDa; holo form made with Nocardia PPTase (ABI83656.1) and CoA
- Km: 1750 ± 160 µM
